Reference: PMC9070667, “Molecular insights into RNA recognition and gene regulation by the TRIM-NHL protein Mei-P26”
Where a chain is given by its changes, count along the chain named.

What was measured:
Mei-P26 NHL RKR [1] = target: T1, Mei-P26 NHL RKR (Drosophila melanogaster (Oregon-R), UniProt M9PH32 908-1206, R1150A;K1172A;R1175A); experiment: MST; MST: 20 mM Hepes/KOH pH 7.5, 100 mM NaCl, 5 mM MgCl2, 5 mM DTT, 0.0125% Tween 20, 25 C (Brat: 20 mM Tris 8.0, 150 mM NaCl, 1 mM MgCl2, 5 mM DTT, 0.0125% Tween 20). EMSA, 1:1 mix, 4 C: RNA in 10 mM Tris pH 7.4, 50 mM KCl, 1 mM EDTA, 1 mM DTT, 0.4 mg/ml yeast tRNA; protein in 20 mM Hepes pH 7.5, 5 mM DTT, 100 mM (wt) or 300 mM (mutants) NaCl, 5% glycerol; conditions: protein: recombinant; tags: GST removed by TEV; label: Cy5
T1 sequence: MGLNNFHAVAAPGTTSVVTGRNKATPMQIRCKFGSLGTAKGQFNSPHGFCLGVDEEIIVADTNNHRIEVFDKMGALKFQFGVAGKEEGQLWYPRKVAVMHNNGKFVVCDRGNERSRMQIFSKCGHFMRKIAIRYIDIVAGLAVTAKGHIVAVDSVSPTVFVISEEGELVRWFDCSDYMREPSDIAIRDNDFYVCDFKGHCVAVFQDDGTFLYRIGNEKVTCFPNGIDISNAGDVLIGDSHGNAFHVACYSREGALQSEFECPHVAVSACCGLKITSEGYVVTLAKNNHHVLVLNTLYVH

Mei-P26 NHL wt [2] = target: T2, Mei-P26 NHL wt (Drosophila melanogaster (Oregon-R), UniProt M9PH32 908-1206); experiment: as above; conditions: protein: recombinant, tags: GST removed by TEV
T2 sequence: T1 sequence with A243R, A265K, A268R

Mei-P26 NHL wt [3] = target: T2, Mei-P26 NHL wt; experiment: EMSA; MST: 20 mM Hepes/KOH pH 7.5, 100 mM NaCl, 5 mM MgCl2, 5 mM DTT, 0.0125% Tween 20, 25 C (Brat: 20 mM Tris 8.0, 150 mM NaCl, 1 mM MgCl2, 5 mM DTT, 0.0125% Tween 20). EMSA, 1:1 mix, 4 C: RNA in 10 mM Tris pH 7.4, 50 mM KCl, 1 mM EDTA, 1 mM DTT, 0.4 mg/ml yeast tRNA; protein in 20 mM Hepes pH 7.5, 5 mM DTT, 100 mM (wt) or 300 mM (mutants) NaCl, 5% glycerol; conditions: protein: recombinant, tags: GST removed by TEV
Mei-P26 NHL R1175A = target: T3, Mei-P26 NHL R1175A (Drosophila melanogaster (Oregon-R), UniProt M9PH32 908-1206, R1175A); experiment: MST; minor influence of the mutation; MST: 20 mM Hepes/KOH pH 7.5, 100 mM NaCl, 5 mM MgCl2, 5 mM DTT, 0.0125% Tween 20, 25 C (Brat: 20 mM Tris 8.0, 150 mM NaCl, 1 mM MgCl2, 5 mM DTT, 0.0125% Tween 20). EMSA, 1:1 mix, 4 C: RNA in 10 mM Tris pH 7.4, 50 mM KCl, 1 mM EDTA, 1 mM DTT, 0.4 mg/ml yeast tRNA; protein in 20 mM Hepes pH 7.5, 5 mM DTT, 100 mM (wt) or 300 mM (mutants) NaCl, 5% glycerol; conditions: protein: recombinant; tags: GST removed by TEV; label: Cy5 (MST); 32P (EMSA)
T3 sequence: T1 sequence with A243R, A265K

Mei-P26 NHL RKR [4] = target: T1, Mei-P26 NHL RKR; experiment: EMSA; MST: 20 mM Hepes/KOH pH 7.5, 100 mM NaCl, 5 mM MgCl2, 5 mM DTT, 0.0125% Tween 20, 25 C (Brat: 20 mM Tris 8.0, 150 mM NaCl, 1 mM MgCl2, 5 mM DTT, 0.0125% Tween 20). EMSA, 1:1 mix, 4 C: RNA in 10 mM Tris pH 7.4, 50 mM KCl, 1 mM EDTA, 1 mM DTT, 0.4 mg/ml yeast tRNA; protein in 20 mM Hepes pH 7.5, 5 mM DTT, 100 mM (wt) or 300 mM (mutants) NaCl, 5% glycerol; conditions: protein: recombinant; tags: GST removed by TEV; label: 32P
Brat NHL = target: T4, Brat NHL (Drosophila melanogaster, UniProt Q8MQJ9 756-1037); experiment: MST; MST: 20 mM Hepes/KOH pH 7.5, 100 mM NaCl, 5 mM MgCl2, 5 mM DTT, 0.0125% Tween 20, 25 C (Brat: 20 mM Tris 8.0, 150 mM NaCl, 1 mM MgCl2, 5 mM DTT, 0.0125% Tween 20). EMSA, 1:1 mix, 4 C: RNA in 10 mM Tris pH 7.4, 50 mM KCl, 1 mM EDTA, 1 mM DTT, 0.4 mg/ml yeast tRNA; protein in 20 mM Hepes pH 7.5, 5 mM DTT, 100 mM (wt) or 300 mM (mutants) NaCl, 5% glycerol; conditions: protein: recombinant; tags: His6-ubiquitin fusion (pHUE); label: Cy5
T4 sequence: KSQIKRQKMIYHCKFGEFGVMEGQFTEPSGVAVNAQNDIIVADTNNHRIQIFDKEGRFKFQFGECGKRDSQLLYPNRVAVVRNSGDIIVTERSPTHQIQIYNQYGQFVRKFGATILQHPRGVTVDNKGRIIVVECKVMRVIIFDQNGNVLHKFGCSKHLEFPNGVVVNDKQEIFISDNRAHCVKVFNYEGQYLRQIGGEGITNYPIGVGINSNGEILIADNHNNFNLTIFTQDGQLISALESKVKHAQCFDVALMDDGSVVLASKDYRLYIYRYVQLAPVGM

B1: SEQ3 (ssRNA)
RNA: UUUUACA
- binding result (Mei-P26 NHL RKR [1]): no binding
- Kd (Mei-P26 NHL wt [2]; label: Cy5): 1700 nM

B2: U7 (SEQ1) (ssRNA)
RNA: UUUUUUU
- Kd (Mei-P26 NHL wt [2]; label: Cy5): 1800 ± 200 nM

B3: U9 (ssRNA)
RNA: UUUUUUUUU
- binding result (Mei-P26 NHL wt [3]; label: Cy5 (MST), 32P (EMSA)): binds
- binding result (Mei-P26 NHL R1175A): binds

B4: SEQ2 (ssRNA)
RNA: AUUUACA
- binding result (Mei-P26 NHL wt [2]; label: Cy5): binds

B5: SEQ5 (ssRNA)
RNA: UUUUUAC
- binding result (Mei-P26 NHL wt [2]; label: Cy5): binds

B6: SEQ44U (ssRNA)
RNA: UUUUACAA
- binding result (Mei-P26 NHL wt [2]; label: Cy5): binds

B7: BRATmut (ssRNA)
RNA: UUUUUAA
- binding result (Mei-P26 NHL wt [2]; label: Cy5): binds

B8: Hrb27C (ssRNA)
RNA: AGUAAUUUUUUCUAUUAAAGU
- binding result (Mei-P26 NHL RKR [4]): no binding
- binding result (Mei-P26 NHL wt [3]; label: 32P): binds

B9: Col4a1 (ssRNA)
RNA: GCCAUUUUUUAUCUGCCA
- binding result (Mei-P26 NHL RKR [4]): no binding
- binding result (Mei-P26 NHL wt [3]; label: 32P): binds

B10: LanA (ssRNA)
RNA: AUCCUUUUUAAAACUCC
- binding result (Mei-P26 NHL RKR [4]): no binding
- binding result (Mei-P26 NHL wt [3]; label: 32P): binds

B11: lost (ssRNA)
RNA: CCCUUUUUUUAUACACAA
- binding result (Mei-P26 NHL RKR [4]): no binding
- binding result (Mei-P26 NHL wt [3]; label: 32P): binds

B12: Mlc-c (ssRNA)
RNA: GGUCUUUUUACAAAAG
- binding result (Mei-P26 NHL RKR [4]): no binding
- binding result (Mei-P26 NHL wt [3]; label: 32P): binds

B13: BRAT1 (ssRNA)
RNA: UUGUUAA
- binding result (Brat NHL): binds

B14: dsRNA hairpin (Lin41 SEQ) (structured_RNA)
RNA: GGAGUCCAACUCC
- binding result (Mei-P26 NHL wt [2]; label: Cy5 (MST), 32P (EMSA), hairpin): no binding

B15: DNA (ssDNA)
DNA: TTTTACA
- binding result (Mei-P26 NHL wt [2]; label: Cy5 (MST), 32P (EMSA)): no binding
